From patent publication US20200040103A1 (Genentech, published 2020) come the findings set out here.

Changes are numbered by the printed parent chain.

B1: 8F5 (antibody, V domains shown)
VH: QSVKESEGGLFKPTDTLTLTCTVSGFSLSSYPISWVRQAPGNGLEWIGYITSEYGVAYYATWAESRSTITRNTNLNTVTLKMTSLTAADTATYFCVRENPTYGYAYDAWGPGTLVTVSS
VL: AYDLTQTPASVEAAVGGTVTINCQASESIGNELSWYQQKSGQPPKLLIYQASTLASGVPSRFKGSGSGTDFTLTISDLECADAATYYCAQGFSSSGVENVFGGGTEVVVK
B2: 10C5 (antibody, V domains shown)
VH: QSLEESGGGLVKPTDTLTLTCTVSGFSLSSYGVTWVRQAPGRGLEWIGYITSNYGVSYYASWAKSRSTITRNTNLNTVTLKMTSLTAADTATYFCARENPDYGYAYDAWGPGTLVTVSV
VL: B1 VL with L4M, V11L, G30S, S40P, K45D, Q50Y, D70E, S93G
notes: Rabbit monoclonal; also called Chimeric 10C5; KLK5.10C5 (complex sample)
B3: 2B11 (antibody, V domains shown)
VH: QSVKESEGGLFKPTDTLTLTCTVSGFSLINYGVSWVRQAPGKGLEWIGYIGSAGSTYYATWAKSRATITRNTNLNTVTLKMTSLTAADTATYFCARAAYSAGSADAEDIWGPGTLVTVSS
VL: AYYMTQTPASVEAAVGGTVTIKCQASQSISNYVAWYQQKPGQPPKLLIYRASTLASGVSSRFSGSGSGTEFTLTISDLECADAATYYCHQGYSSSNVDNIFGGGTEVVVK
B4: 3-3F5 (antibody, V domains shown)
VH: QSVKESEGGLFKPTDTLTLTCTVSGFSLNDYGVSWVRQAPGNGLEWIGAIGSSGVAWYANWAKGRSTITRNTNLNTVTLKMASLTAADTATYFCARDRDYGYRADDATSGMDLWGPGTLVTVSS
VL: AYDMTQTPASVEAAVGGTVTIKCQASESIGNALAWYQQKPGQPPKLLIYDASDLASGVPSRFKGSGSGTQFTLTISGVECADAATYYCQQGDSHNNVDNIFGGGTEVVVK
notes: Rabbit monoclonal; also called Chimeric 3-3F5
B5: 2-3F4 (antibody, V domains shown)
VH: QSVEESRGGLIKPTDTLTLTCTASGFSLSNYGVSWVRQAPGNGLEYIGFIGYGGSTYYASWAKSRSTITRNTNLNTVTLQMTSLTAADTATYFCARLCGVDCADALDSWGPGTLVTVSS
VL: AYYMTQTPASVEVAVGGTVTIKCQASEDIGSYCSWYQQKPGQPPKLLIYDASDLASGVPSRFKGSGSGTDFTLTISGVQCDDAATYYCQQDYTGNNVDNTFGGGSEVVVK
B6: 9B6 (antibody, V domains shown)
VH: QSVKESEGGLFKPTDNLTLTCTVSGFSLSNYGVTWVRQAPGNGLEYIGFIGSGGSAYYASWAKSRSTITRNTNLNTVTLKMTSLTAADTATYFCARDDVGGGKSLDIWGPGTLVTVSS
VL: NIVMTQTPASVEVAVGGTVVIKCQASQNIGDYLSWYQQKPGQRPKLLIYSASTLASGVPSRFKGSGSGTQFTLTISDLECADAATYYCHQDYTSNDVENTFGGGTEVVVK
B7: 9H3 (antibody, V domains shown)
VH: B6 VH with N16T, N30G, T34S, N42K, S83R, D98N, G102D, K103M
VL: DIVMTQTPASVSEPVGGTVTIKCQASQNINNYLSWYQQKPGQPPKQLIYAASTLASGVPSRFKGSGSGTQFTLTISDLECADAATYYCHQDYTSNNVDNTFGGGTEVVVK
B8: 9H5 (antibody, V domains shown)
VH: B6 VH with N30S, T34S, S55F, L113V, S118V
VL: NIVMTQTPASVEAAVGGTVTINCQASQSISSYLSWYQQKSGQRPKLLIFSASTLASGVPSRFTGSGSGTQFTLTISDLQCADAATYYCHQDYTSSNVDNTFGGGTEVVVK
notes: Rabbit monoclonal; also called Chimeric 9H5; KLK5.9H5 (complex sample)
B9: 10C8 (antibody, V domains shown)
VH: B6 VH with N30S, T34S, S55F, K103R, L113V
VL: NIVMTQTPASVEVAMGGTVIIKCQASQSISTYLSWYQQKPGQPPKLLIYSASTLASGVSSRFEGSGSGTQFTLTISGVQCADAATYYCHQDYTSNNVDNTFGGGTEVVVK
B10: 8B7 (antibody, V domains shown)
VH: B6 VH with G53S
VL: B6 VL with V20T, N28S, D31S, R43P, S50D, T53N, T74S, D96N, E98D, V109I
B11: 9F2 (antibody, V domains shown)
VH: B6 VH with N30S, T34S, A56P
VL: B6 VL with V20I, N28S, G30S, D31N, Q37H, P40S, K45R, D96S, E98D
B12: 10H3 (antibody, V domains shown)
VH: QSVKESEGGLIKPTDTLTLTCTVSGFSLSTFAINWVRQAPGNGLEWIGAIGRGGSAYYASWAKSRSTITKNTNLNTVTLKMTRPTAADTATYFCARENAGSGWGELDIWGPGTLVTVSS
VL: AYEMTQTPASVEVAVGGTVTINCQASESISSDLAWYQQKPGQRPKLLIYAASTLASGVPSRFKGSGSGTEFTLSISGVQCADAATYYCQQGYTWNNVDNVFGGGTEVVVK
notes: also called KLK5.10H3 (complex sample)

Sequence of human KLK7 (P49862 30-253 limits assumed): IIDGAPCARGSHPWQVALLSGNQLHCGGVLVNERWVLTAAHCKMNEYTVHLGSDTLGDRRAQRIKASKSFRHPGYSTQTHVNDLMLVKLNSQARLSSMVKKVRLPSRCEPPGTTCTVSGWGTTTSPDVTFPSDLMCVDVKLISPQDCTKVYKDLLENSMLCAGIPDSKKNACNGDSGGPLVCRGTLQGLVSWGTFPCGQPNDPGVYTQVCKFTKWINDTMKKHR
Sequence of human KLK4 (Q9Y5K2 31-254 limits assumed): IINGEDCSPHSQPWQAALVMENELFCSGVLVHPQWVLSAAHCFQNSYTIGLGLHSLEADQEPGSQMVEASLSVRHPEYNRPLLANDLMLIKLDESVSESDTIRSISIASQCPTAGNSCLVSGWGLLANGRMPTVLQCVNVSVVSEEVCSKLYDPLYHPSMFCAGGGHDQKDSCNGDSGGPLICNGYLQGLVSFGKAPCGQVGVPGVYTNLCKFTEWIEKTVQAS

The first test addresses human KLK7 (human, UniProt P49862 30-253, limits assumed). Description: column 6: KLK7 activity assay, 5 nM KLK7. The procedure:
KLK7 selectivity assay was performed at room temperature in a 384-well plate (black, low-volume round bottom, Corning #4514) with a final reaction volume of 15 μL. Inhibitor samples were diluted to 3× final concentration in assay buffer (75 mM Tris, pH 8.0, 150 mM NaCl, 0.01% TWEEN® 20). Reactions lacking inhibitor and reactions lacking enzyme were used as 100% and 0% activity controls, respectively. Inhibitor or control samples (5 μL) were added to the plate followed by 5 μL KLK7 (Genentech) in assay buffer at a final concentration of 5 nM. After 30 min, 5 μL of Suc-Leu-Leu-Val-Tyr-AMC (Bachem I-1395, 25 mM stock solution in water) in assay buffer was added at a final concentration of 100 μM. […] Reaction rates (expressed as RFU/s) were calculated by linear regression in the range 2040-4488 seconds. Reaction rates were normalized to the values of the 0% and 100% activity controls and fit with a 4-parameter equation to calculate IC₅₀ values. […]
For the molecule B1, the half-maximal inhibitory concentration (IC50) (as a rule, the concentration that inhibits the measured activity by half) was > 100 nM.

B2: the IC50 is > 100 nM.

Regarding B3, the IC50 is > 100 nM.

Regarding B4, the IC50 is > 100 nM.

For B5, the IC50 is > 100 nM.

On to B6, for which the IC50 was > 100 nM.

Take B7: the IC50 was > 100 nM.

B8: the IC50 is > 100 nM.

With B9, the IC50 was > 100 nM.

With B10, the IC50 was > 100 nM.

B11: the IC50 was > 100 nM.

In the case of B12, the IC50 was > 100 nM.

For a further test, the target named is human KLK1 (human, UniProt P06870 25-262, limits assumed). Description: column 7: KLK1 activity assay, 3 nM KLK1.
Sequence of human KLK1 (P06870 25-262 limits assumed): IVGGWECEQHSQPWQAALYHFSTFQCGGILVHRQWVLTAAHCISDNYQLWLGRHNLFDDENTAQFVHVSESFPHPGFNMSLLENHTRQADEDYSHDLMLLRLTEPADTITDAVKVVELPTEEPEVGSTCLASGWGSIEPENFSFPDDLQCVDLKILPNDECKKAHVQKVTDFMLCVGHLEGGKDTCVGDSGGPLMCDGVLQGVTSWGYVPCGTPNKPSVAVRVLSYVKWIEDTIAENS
With B1, the IC50 is > 100 nM.

Regarding B2, the IC50 was > 100 nM.

With B3, the IC50 is > 100 nM.

In the case of B4, the IC50 was > 100 nM.

For the molecule B5, the IC50 was > 100 nM.

On to B6, for which the IC50 is > 100 nM.

In the case of B7, the IC50 is > 100 nM.

For the molecule B8, the IC50 was > 100 nM.

On to B9, for which the IC50 was > 100 nM.

Take B10: the IC50 was > 100 nM.

As for B11, the IC50 was > 100 nM.

As to B12, the IC50 was > 100 nM.

The target in a further test is T1, trypsin isolated from bovine pancreas (bovine, UniProt P00760 24-246).
T1 construct: also called bovine trypsin
T1 sequence (P00760 24-246): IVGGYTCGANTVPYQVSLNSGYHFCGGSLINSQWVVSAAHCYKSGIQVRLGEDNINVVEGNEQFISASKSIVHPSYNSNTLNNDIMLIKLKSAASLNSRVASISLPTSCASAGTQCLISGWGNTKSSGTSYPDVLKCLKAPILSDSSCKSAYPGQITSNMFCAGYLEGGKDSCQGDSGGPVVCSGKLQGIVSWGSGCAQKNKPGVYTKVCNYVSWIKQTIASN
The test can be described thus: column 9: trypsin activity assay, 0.25 nM trypsin. As to the method: 0.25 nM trypsin isolated from bovine pancreas and 0.19-100 nM anti-KLK5 inhibitors were pre-incubated for 30 minutes prior to addition of 50 μM Boc-VPR-AMC. […] The results for the KLK5 inhibitors are depicted as follows: FIG. 9A: Spink9.SRE.Fc, FIG. 9B: mAb1108, FIG. 9C: 3-3F5, FIG. 9D: 10C8, FIG. 9E: 9B6, FIG. 9F: 9F2, FIG. 9G: 9H3, FIG. 9H: 9H5, FIG. 9I: 8B7, FIG. 9J: 2B11, FIG. 9K: 8F5, FIG. 9L: 10C5, FIG. 9M: 10H3 and FIG. 9N: 2-3F4.
(§1) Trypsin selectivity assay was performed at room temperature in a 384-well plate (black, low-volume round bottom, Corning #4514) with a final reaction volume of 15 μL. Inhibitor samples were diluted to 3× final concentration in assay buffer (75 mM Tris, pH 8.0, 150 mM NaCl, 0.01% TWEEN® 20). Reactions lacking inhibitor and reactions lacking enzyme were used as 100% and 0% activity controls, respectively. Inhibitor or control samples (5 μL) were added to the plate followed by 5 μL trypsin (Sigma Aldrich T8003, Lot SLBM2321V, 42.0 μM stock solution in 1 mM HCl) in assay buffer at a final concentration of 0.25 nM. After 30 minutes, 5 μL of Boc-Val-Pro-Arg-AMC (Bachem I-1120, 31.3 mM stock solution in water) in assay buffer was added at a final concentration of 50 μM. […] Reaction rates (expressed as RFU/s) were calculated by linear regression in the range 204-3570 seconds. Reaction rates were normalized to the values of the 0% and 100% activity controls and fit with a 4-parameter equation to calculate IC₅₀ values. In the case of bivalent inhibitors, the raw IC₅₀ value was multiplied by two.
Regarding B1, the IC50 is > 100 nM.

B2: the IC50 is > 100 nM.

Take B3: the IC50 is > 100 nM.

On to B4, for which the IC50 was > 100 nM.

Take B5: the IC50 is > 100 nM.

With B6, the half-inhibitory concentration (IC50) is > 100 nM.

As for B7, the IC50 is > 100 nM.

For B8, the IC50 was > 100 nM.

For B9, the IC50 is > 100 nM.

For the molecule B10, the IC50 is > 100 nM.

Take B11: the half-inhibitory concentration (IC50) was > 100 nM.

Take B12: the IC50 was > 100 nM.

Another test concerns the target human KLK4 (human, UniProt Q9Y5K2 31-254, limits assumed). The test can be described thus: column 8: KLK4 activity assay, 2 nM KLK4. The procedure: as §1, with “KLK4” for “Trypsin”, “KLK4 (R&D Systems, 1719-SE,” for “trypsin (Sigma Aldrich T8003,”, “MSY0116011, activated according to R&D systems protocol)” for “SLBM2321V, 42.0 μM stock solution in 1 mM HCl)”, “2” for “0.25”, “510-3570” for “204-3570”
In FIG. 8, the ability of Spink9.SRE.Fc, mAb1108 or 12 selected anti-KLK5 antibodies to inhibit the proteolysis of the substrate, Boc-VPR-AMC, by human KLK4 was assessed using an enzymatic assay. […] The results were expressed as a percentage of maximum KLK4 activity (% control).
Turning to B1, the concentration for half-maximal inhibition (IC50) was > 100 nM.

As to B2, the IC50 is > 100 nM.

In the case of B3, the IC50 was > 100 nM.

B4: the IC50 was > 100 nM.

On to B5, for which the IC50 is > 100 nM.

Regarding B6, the IC50 is > 100 nM.

As to B7, the IC50 is > 100 nM.

B8: the concentration for half-maximal inhibition (IC50) is > 100 nM.

As to B9, the IC50 is > 100 nM.

Consider B10, for which the IC50 was > 100 nM.

B11: the concentration for half-maximal inhibition (IC50) was > 100 nM.

As for B12, the IC50 is > 100 nM.
